According to patent publication US20100092455A1 (PIERRE FABRE MEDICAMENT, published 2010):

Assays:
[1] = target: T1, natural human JAM-A protein (F11R / junctional adhesion molecule A), isoform a (human, UniProt Q9Y624 28-299); assay: flow cytometry, labeling of MCF-7 cells with 6F4
T1 construct: Natural protein; Mass spectrometry matched it to JAM-A isoform a; also called F11 receptor; JAM-1
T1 sequence: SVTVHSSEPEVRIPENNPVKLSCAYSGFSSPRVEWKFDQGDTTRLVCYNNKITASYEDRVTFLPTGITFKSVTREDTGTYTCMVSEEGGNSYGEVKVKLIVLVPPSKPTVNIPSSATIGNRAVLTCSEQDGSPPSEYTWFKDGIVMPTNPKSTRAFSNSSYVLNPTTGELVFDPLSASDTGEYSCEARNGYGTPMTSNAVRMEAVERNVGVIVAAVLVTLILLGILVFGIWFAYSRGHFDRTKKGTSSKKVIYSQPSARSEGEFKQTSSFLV

[2] = target: T2, recombinant human JAM-A/Fc (R&D Systems ref. 1103-JM) (human, UniProt Q9Y624 28-238); assay: SPR (BIAcore X), double reference, Langmuir A+B binding model, 25° C.
T2 construct: also called hJAM-A/Fc; Human JAM-1-Fc
T2 sequence: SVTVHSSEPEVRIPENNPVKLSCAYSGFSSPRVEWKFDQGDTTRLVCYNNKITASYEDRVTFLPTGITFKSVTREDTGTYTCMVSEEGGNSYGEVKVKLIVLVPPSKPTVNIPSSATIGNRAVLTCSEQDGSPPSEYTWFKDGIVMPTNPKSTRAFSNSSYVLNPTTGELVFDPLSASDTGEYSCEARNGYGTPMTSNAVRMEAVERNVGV
Description: (§1) FIG. 14 is sensorgrams obtained with a double reference, (Fc2-Fc1)6F4(Fc2-Fc1)HBS-EP. The curve is fitted using a Langmuir A+B binding model.
(§2) Murine monoclonal 6F4 antibody: 1.3 mg/ml [0351] […] Running buffer: HBS-EP (BIAcore) [0354] Binding kit: “Amine” (BIAcore) [0355] Binding buffer: Acetate pH 5.0 (BIAcore) [0356] Capturing antibody: goat IgG Fc anti-human (=GAH, goat anti-human) (Bioscience) [0357] Regeneration buffer: Glycine, HCl pH 1.5 for 30 seconds (BIAcore).

[3] = target: T3, recombinant human JAM-C/Fc (R&D Systems ref. 1189-J3) (human, UniProt Q9BX67 32-241, limits assumed); assay: western blot, non-reducing, revealed with 6F4; 250, 25 and 10 ng deposited
T3 construct: Bought product; also called hJAM-C/Fc; human form of JAM-C; not shown: Fc part of the bought fusion protein
T3 sequence (looked up): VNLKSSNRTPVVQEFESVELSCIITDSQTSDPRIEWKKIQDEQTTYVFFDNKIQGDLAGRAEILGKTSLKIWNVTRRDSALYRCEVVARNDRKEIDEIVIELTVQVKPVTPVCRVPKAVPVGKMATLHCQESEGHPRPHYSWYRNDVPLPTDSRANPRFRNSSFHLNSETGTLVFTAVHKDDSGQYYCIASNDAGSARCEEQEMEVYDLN

[4] = target: T4, recombinant murine JAM-A/Fc (R&D Systems ref. 1077-JM) (murine, UniProt O88792 27-238); assay: as above
T4 construct: extracellular domain; Bought product; also called mJAM-A/Fc; Mouse JAM-1-Fc; not shown: Fc part of the bought fusion protein
T4 sequence (looked up): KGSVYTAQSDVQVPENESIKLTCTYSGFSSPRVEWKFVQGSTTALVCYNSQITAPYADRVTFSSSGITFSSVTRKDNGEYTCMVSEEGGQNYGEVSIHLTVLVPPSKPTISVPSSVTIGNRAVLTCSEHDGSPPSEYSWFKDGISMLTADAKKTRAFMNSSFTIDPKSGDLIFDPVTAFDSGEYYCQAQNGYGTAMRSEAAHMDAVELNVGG

[5] = target: T5, recombinant human JAM-B/Fc (R&D Systems ref. 1074-VJ) (human, UniProt P57087 29-236, limits assumed); assay: as above
T5 construct: Bought product; also called hJAM-B/Fc; human form of JAM-B; not shown: Fc part of the bought fusion protein
T5 sequence (looked up): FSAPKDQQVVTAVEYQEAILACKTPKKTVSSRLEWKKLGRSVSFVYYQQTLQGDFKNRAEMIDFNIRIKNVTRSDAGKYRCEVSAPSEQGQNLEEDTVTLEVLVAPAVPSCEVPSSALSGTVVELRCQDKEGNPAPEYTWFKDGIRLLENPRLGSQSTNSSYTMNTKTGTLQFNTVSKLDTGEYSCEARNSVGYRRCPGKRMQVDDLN

[6] = target: T2, recombinant human JAM-A/Fc (R&D Systems …); assay: SPR (BIAcore X), KD=kd/ka
Description: as §1, §2

EC50 (read off the curve) [1]: ~0.3 µg/mL | koff [2]: 2.5e-07 s⁻¹ | kon [2]: 138000 M⁻¹ s⁻¹ | binding result [3]: no binding (tested: 250 ng) | binding result [4]: no binding (tested: 250 ng) | binding result [5]: no binding (tested: 250 ng) | Kd [6]: 0.022 nM
B1: murine monoclonal 6F4 antibody (antibody, V domains shown)
VH: EIQLQQSGPELVKPGASVKVSCKASGYSFTDYSMYWVKQSHGKSLEWIGYIDPYNGGTRYNQKFKGKATLTVDKSSSTAFMHLNSLTSEDSAVYYCARQTDYFDYWGQGTTLTVSS
VL: DIQMTQSPSSLSASLGGKVTITCKASQDINNYIAWYQHKPGKGPRLLIHYTSTLQAGIPSRFSGSGSGRDYSFSISNLEPEDIGTYYCLQYDNLWTFGGGTKLEIKR
notes: also called 6F4 MAb; Mab 6F4; copies: 2 + 2
